The sequences below were run on Escherichia coli TOP10 (assay: shrunken log2 fold change of peptide-encoding DNA abundance (4.5 h post-induction vs induction); higher = less antimicrobial activity (less host growth inhibition)). Details: time post-induction: 4.5 h; library: site-saturation at positions 5, 18, 19, 20.
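Note: peptides expressed intracellularly from a pBAD plasmid library in pooled LB shake-flask culture, induced with 0.3% L-arabinose, DNA abundance read by NGS, three biological replicates, DESeq2 with apeglm shrinkage.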

| Sequence | shrunken log2 fold change |
| --- | --- |
| RRIRIRPPRLPRPRPRPGFPPRP | 0.186 |
| RRIRIRPPRLPRPRPRPGGPPRP | 0.0365 |
| RRIRIRPPRLPRPRPRPGGRPRP | 0.229 |
| RRIRIRPPRLPRPRPRPGHCPRP | -0.247 |
| RRIRIRPPRLPRPRPRPGHNPRP | -0.0704 |
| RRIRIRPPRLPRPRPRPGICPRP | -0.0709 |
| RRIRIRPPRLPRPRPRPGIDPRP | -0.00862 |
| RRIRIRPPRLPRPRPRPGLKPRP | 0.0429 |
| RRIRIRPPRLPRPRPRPGMKPRP | -0.126 |
| RRIRIRPPRLPRPRPRPGNLPRP | -0.175 |
| RRIRIRPPRLPRPRPRPGPGPRP | 0.385 |
| RRIRIRPPRLPRPRPRPGPWPRP | 0.0988 |
| RRIRIRPPRLPRPRPRPGQLPRP | 0.0335 |
| RRIRIRPPRLPRPRPRPGQWPRP | -0.124 |
| RRIRIRPPRLPRPRPRPGREPRP | 0.311 |
| RRIRIRPPRLPRPRPRPGSNPRP | -0.515 |
| RRIRIRPPRLPRPRPRPGSVPRP | -0.258 |
| RRIRIRPPRLPRPRPRPGTFPRP | -0.0863 |
| RRIRIRPPRLPRPRPRPGTVPRP | -0.624 |
| RRIRIRPPRLPRPRPRPGVGPRP | 0.435 |
| RRIRIRPPRLPRPRPRPGVNPRP | -0.319 |
| RRIRIRPPRLPRPRPRPGWIPRP | -0.14 |
| RRIRIRPPRLPRPRPRPHAPPRP | 0.2 |
| RRIRIRPPRLPRPRPRPHCQPRP | -0.173 |
| RRIRIRPPRLPRPRPRPHDDPRP | -0.177 |

| Sequence | shrunken log2 fold change |
| --- | --- |
| RRIRIRPPRLPRPRPRPHDRPRP | -0.289 |
| RRIRIRPPRLPRPRPRPHEIPRP | -0.256 |
| RRIRIRPPRLPRPRPRPHEQPRP | -0.288 |
| RRIRIRPPRLPRPRPRPHERPRP | -0.169 |
| RRIRIRPPRLPRPRPRPHFTPRP | -0.0792 |
| RRIRIRPPRLPRPRPRPHFYPRP | -0.407 |
| RRIRIRPPRLPRPRPRPHGIPRP | -0.0115 |
| RRIRIRPPRLPRPRPRPHGKPRP | -0.326 |
| RRIRIRPPRLPRPRPRPHHLPRP | -0.221 |
| RRIRIRPPRLPRPRPRPHHRPRP | -0.46 |
| RRIRIRPPRLPRPRPRPHLGPRP | 0.0798 |
| RRIRIRPPRLPRPRPRPHLIPRP | -0.245 |
| RRIRIRPPRLPRPRPRPHMEPRP | -0.332 |
| RRIRIRPPRLPRPRPRPHQVPRP | -0.614 |
| RRIRIRPPRLPRPRPRPHRHPRP | -0.364 |
| RRIRIRPPRLPRPRPRPHSDPRP | -0.439 |
| RRIRIRPPRLPRPRPRPHSPPRP | -0.161 |
| RRIRIRPPRLPRPRPRPHSQPRP | -0.824 |
| RRIRIRPPRLPRPRPRPHTHPRP | -0.92 |
| RRIRIRPPRLPRPRPRPHTIPRP | -0.572 |
| RRIRIRPPRLPRPRPRPHTKPRP | -1.68 |
| RRIRIRPPRLPRPRPRPHVDPRP | -0.294 |
| RRIRIRPPRLPRPRPRPHVYPRP | -0.112 |
| RRIRIRPPRLPRPRPRPHYAPRP | -0.121 |
| RRIRIRPPRLPRPRPRPHYQPRP | -0.463 |

| Sequence | shrunken log2 fold change |
| --- | --- |
| RRIRIRPPRLPRPRPRPICAPRP | 0.0269 |
| RRIRIRPPRLPRPRPRPICLPRP | -0.197 |
| RRIRIRPPRLPRPRPRPICSPRP | -0.118 |
| RRIRIRPPRLPRPRPRPIEHPRP | 0.00487 |
| RRIRIRPPRLPRPRPRPIEMPRP | -0.00843 |
| RRIRIRPPRLPRPRPRPIFFPRP | -0.123 |
| RRIRIRPPRLPRPRPRPIFGPRP | -0.164 |
| RRIRIRPPRLPRPRPRPIFIPRP | -0.317 |
| RRIRIRPPRLPRPRPRPIGAPRP | -0.0926 |
| RRIRIRPPRLPRPRPRPIGDPRP | -0.0264 |
| RRIRIRPPRLPRPRPRPIHLPRP | -0.352 |
| RRIRIRPPRLPRPRPRPIISPRP | -0.101 |
| RRIRIRPPRLPRPRPRPINIPRP | -1.41 |
| RRIRIRPPRLPRPRPRPINLPRP | -0.146 |
| RRIRIRPPRLPRPRPRPINMPRP | -0.956 |
| RRIRIRPPRLPRPRPRPIPMPRP | -0.705 |
| RRIRIRPPRLPRPRPRPIPYPRP | -0.295 |
| RRIRIRPPRLPRPRPRPIRMPRP | -0.346 |
| RRIRIRPPRLPRPRPRPIRSPRP | -0.273 |
| RRIRIRPPRLPRPRPRPIRTPRP | -0.288 |
| RRIRIRPPRLPRPRPRPITMPRP | -1.08 |
| RRIRIRPPRLPRPRPRPITSPRP | -1.46 |
| RRIRIRPPRLPRPRPRPITVPRP | -0.426 |
| RRIRIRPPRLPRPRPRPITYPRP | -0.323 |
| RRIRIRPPRLPRPRPRPIVCPRP | 0.000993 |

| Sequence | shrunken log2 fold change |
| --- | --- |
| RRIRIRPPRLPRPRPRPIVSPRP | -0.102 |
| RRIRIRPPRLPRPRPRPIWSPRP | 0.025 |
| RRIRIRPPRLPRPRPRPIYEPRP | -0.107 |
| RRIRIRPPRLPRPRPRPIYLPRP | -0.811 |
| RRIRIRPPRLPRPRPRPIYYPRP | -0.539 |
| RRIRIRPPRLPRPRPRPKCYPRP | -0.00654 |
| RRIRIRPPRLPRPRPRPKEDPRP | -0.327 |
| RRIRIRPPRLPRPRPRPKEFPRP | -0.361 |
| RRIRIRPPRLPRPRPRPKETPRP | -0.0675 |
| RRIRIRPPRLPRPRPRPKEYPRP | -0.728 |
| RRIRIRPPRLPRPRPRPKFWPRP | -0.0477 |
| RRIRIRPPRLPRPRPRPKGPPRP | -0.14 |
| RRIRIRPPRLPRPRPRPKIHPRP | -0.464 |
| RRIRIRPPRLPRPRPRPKISPRP | -0.3 |
| RRIRIRPPRLPRPRPRPKKFPRP | -0.666 |
| RRIRIRPPRLPRPRPRPKKMPRP | 0.222 |
| RRIRIRPPRLPRPRPRPKKQPRP | -0.194 |
| RRIRIRPPRLPRPRPRPKLPPRP | 0.0199 |
| RRIRIRPPRLPRPRPRPKLQPRP | 0.173 |
| RRIRIRPPRLPRPRPRPKLRPRP | 0.349 |
| RRIRIRPPRLPRPRPRPKNWPRP | -0.035 |
| RRIRIRPPRLPRPRPRPKPLPRP | -0.191 |
| RRIRIRPPRLPRPRPRPKQFPRP | -0.328 |
| RRIRIRPPRLPRPRPRPKRGPRP | 0.2 |
| RRIRIRPPRLPRPRPRPKSAPRP | -0.0724 |

| Sequence | shrunken log2 fold change |
| --- | --- |
| RRIRIRPPRLPRPRPRPKSHPRP | -0.451 |
| RRIRIRPPRLPRPRPRPKTEPRP | -0.413 |
| RRIRIRPPRLPRPRPRPKVNPRP | -0.647 |
| RRIRIRPPRLPRPRPRPKVSPRP | 0.0423 |
| RRIRIRPPRLPRPRPRPKWYPRP | -0.22 |
| RRIRIRPPRLPRPRPRPKYAPRP | -0.118 |
| RRIRIRPPRLPRPRPRPKYFPRP | -0.288 |
| RRIRIRPPRLPRPRPRPKYRPRP | 0.0239 |
| RRIRIRPPRLPRPRPRPLAIPRP | -1.11 |
| RRIRIRPPRLPRPRPRPLATPRP | -0.0671 |
| RRIRIRPPRLPRPRPRPLAYPRP | -0.132 |
| RRIRIRPPRLPRPRPRPLCEPRP | -0.332 |
| RRIRIRPPRLPRPRPRPLCMPRP | -0.964 |
| RRIRIRPPRLPRPRPRPLDCPRP | -0.267 |
| RRIRIRPPRLPRPRPRPLDYPRP | -0.504 |
| RRIRIRPPRLPRPRPRPLFSPRP | -0.423 |
| RRIRIRPPRLPRPRPRPLGQPRP | -0.00501 |
| RRIRIRPPRLPRPRPRPLGTPRP | -0.356 |
| RRIRIRPPRLPRPRPRPLHEPRP | -0.191 |
| RRIRIRPPRLPRPRPRPLICPRP | -0.738 |
| RRIRIRPPRLPRPRPRPLIVPRP | -0.622 |
| RRIRIRPPRLPRPRPRPLKTPRP | 0.0161 |
| RRIRIRPPRLPRPRPRPLKWPRP | -0.535 |
| RRIRIRPPRLPRPRPRPLMKPRP | -0.232 |
| RRIRIRPPRLPRPRPRPLMWPRP | -0.115 |

| Sequence | shrunken log2 fold change |
| --- | --- |
| RRIRIRPPRLPRPRPRPLNEPRP | -0.497 |
| RRIRIRPPRLPRPRPRPLPPPRP | 0.127 |
| RRIRIRPPRLPRPRPRPLPTPRP | 0.0405 |
| RRIRIRPPRLPRPRPRPLQTPRP | 0.0711 |
| RRIRIRPPRLPRPRPRPLRNPRP | -0.0491 |
| RRIRIRPPRLPRPRPRPLSLPRP | -0.868 |
| RRIRIRPPRLPRPRPRPLSSPRP | -0.143 |
| RRIRIRPPRLPRPRPRPLWPPRP | -0.0906 |
| RRIRIRPPRLPRPRPRPLYEPRP | -0.649 |
| RRIRIRPPRLPRPRPRPMAFPRP | -0.0587 |
| RRIRIRPPRLPRPRPRPMAPPRP | -0.0415 |
| RRIRIRPPRLPRPRPRPMCAPRP | -0.127 |
| RRIRIRPPRLPRPRPRPMCKPRP | -0.262 |
| RRIRIRPPRLPRPRPRPMDTPRP | 0.0627 |
| RRIRIRPPRLPRPRPRPMDWPRP | 0.0118 |
| RRIRIRPPRLPRPRPRPMEKPRP | -0.229 |
| RRIRIRPPRLPRPRPRPMGMPRP | -0.253 |
| RRIRIRPPRLPRPRPRPMGPPRP | 0.0284 |
| RRIRIRPPRLPRPRPRPMHAPRP | 0.325 |
| RRIRIRPPRLPRPRPRPMHNPRP | -0.332 |
| RRIRIRPPRLPRPRPRPMHQPRP | -0.121 |
| RRIRIRPPRLPRPRPRPMHTPRP | 0.0542 |
| RRIRIRPPRLPRPRPRPMICPRP | -0.224 |
| RRIRIRPPRLPRPRPRPMIEPRP | -0.0216 |
| RRIRIRPPRLPRPRPRPMIHPRP | -0.363 |

— the supplement of paper PMC9112550, “Optimization of the antimicrobial peptide Bac7 by deep mutational scanning” (BMC Biology, 2022)
